Series [1] concerns Saccharomyces cerevisiae. Nature of the series: protein stability index of tFT-peptide fusion in wild type (PSI (0-1 scale)); higher = more stable (slower turnover). The settings on record: genetic background: wild type. The method, then:
(§1)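 MPS profiling in S. cerevisiae of two library types built from selected 12-aa C-degron peptides (IN1, IN2, LN1, LN3, VN2, R1-R5, W1-W3, Atg1 and Rpa12 C-termini): saturation mutagenesis libraries and C-terminal +1 capping libraries (13 aa). Each peptide is fused to the C-terminus of a sfGFP-mCherry timer, after a GGGS linker. Cells are FACS-sorted into 8 mCherry/sfGFP bins and sequenced. PSI runs from 0 (unstable) to 1 (stable), measured once in wild type and in the das1Δ or doa10Δ background.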

Series [2] deals with Saccharomyces cerevisiae. Description: protein stability index of tFT-peptide fusion in deletion strain of DAS1 (PSI (0-1 scale)); higher = more stable (slower turnover). The method, then:
as §1
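Throughout, for protein stability index of tFT-peptide fusion in deletion strain of DAS1: PSI is a weighted mean of each variant's read distribution over the sorted stability bins, computed only for variants having over 10 reads in total.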
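Throughout, for protein stability index of tFT-peptide fusion in wild type: PSI derived as read-weighted mean over the 8 sorting bins, only variants exceeding 10 total reads kept, mCherry placed adjacent to the peptide and sfGFP distal.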

Take PDKRNILIKLLN: the protein stability index with Saccharomyces cerevisiae [1] was determined as 0.165; in the series with Saccharomyces cerevisiae [2], 0.598.

As for PDKRNKLIKLLN, the protein stability index with Saccharomyces cerevisiae [1] is 0.115; with Saccharomyces cerevisiae [2], 0.671.

Turning to PDQRNHLIKLLN, the figures for the protein stability index in the series with Saccharomyces cerevisiae [1] and with Saccharomyces cerevisiae [2] were 0.136 and 0.585, respectively.

For PFLAASFWRVVG, the results for the protein stability index in the series with Saccharomyces cerevisiae [1] and with Saccharomyces cerevisiae [2] were 0.154 and 0.693, respectively.

On to PGLAASFWRVVG, for which the protein stability index with Saccharomyces cerevisiae [1] is 0.172; in the series on Saccharomyces cerevisiae [2], 0.695.

Consider PRWRVGLWRGAS, for which the protein stability index with Saccharomyces cerevisiae [1] came out at 0.364; in the series on Saccharomyces cerevisiae [2] it was 0.707.

Consider PSLAASFCRVVG, for which the protein stability index is 0.618 in the series with Saccharomyces cerevisiae [1] and 0.645 with Saccharomyces cerevisiae [2].

PSLAASFFRVVG: the protein stability index was found to be 0.609 in the series with Saccharomyces cerevisiae [1] and 0.654 in the series with Saccharomyces cerevisiae [2].

Turning to PSLAASFLRVVG, the protein stability index amounted to 0.641 in the series on Saccharomyces cerevisiae [1] and 0.642 with Saccharomyces cerevisiae [2].

With PSLAASFQRVVG, the protein stability index in the series on Saccharomyces cerevisiae [1] is 0.692; in the series with Saccharomyces cerevisiae [2] it was 0.672.

Turning to PSLAASFTRVVG, the results for the protein stability index with Saccharomyces cerevisiae [1] and in the series on Saccharomyces cerevisiae [2] were 0.647 and 0.648, respectively.

Turning to PSLAASFWIVVG, the protein stability index with Saccharomyces cerevisiae [1] was found to be 0.418; in the series with Saccharomyces cerevisiae [2], 0.421.

Turning to PSLAASFWMVVG, the protein stability index in the series on Saccharomyces cerevisiae [1] stood at 0.525; in the series with Saccharomyces cerevisiae [2] it was 0.637.

For the sequence PSLAASFWRMVG, the protein stability index in the series on Saccharomyces cerevisiae [1] was 0.151; in the series with Saccharomyces cerevisiae [2] it was 0.646.

PSLAASFWRVIG: the results for the protein stability index in the series on Saccharomyces cerevisiae [1] and with Saccharomyces cerevisiae [2] were 0.151 and 0.677, respectively.

For PSLAASFWRVRG, the protein stability index was 0.666 in the series on Saccharomyces cerevisiae [1] and 0.683 with Saccharomyces cerevisiae [2].

As for PSLAASFWRVTG, the protein stability index in the series with Saccharomyces cerevisiae [1] was 0.142; with Saccharomyces cerevisiae [2], 0.687.

For the sequence PSLAASFWRVVF, the protein stability index in the series on Saccharomyces cerevisiae [1] came out at 0.699; in the series with Saccharomyces cerevisiae [2], 0.701.

For PSLAASFWRVVGD, the protein stability index in the series on Saccharomyces cerevisiae [1] is 0.689; in the series on Saccharomyces cerevisiae [2], 0.691.

In the case of PSLAASFWRVVGW, the protein stability index with Saccharomyces cerevisiae [1] amounted to 0.714; in the series with Saccharomyces cerevisiae [2], 0.699.

In the case of PSLAASFWRVVK, the protein stability index is 0.661 in the series with Saccharomyces cerevisiae [1] and 0.688 in the series with Saccharomyces cerevisiae [2].

In the case of PSLAASRWRVVG, the figures for the protein stability index with Saccharomyces cerevisiae [1] and in the series with Saccharomyces cerevisiae [2] were 0.156 and 0.682, respectively.

Turning to PSLAAWFWRVVG, the protein stability index in the series on Saccharomyces cerevisiae [1] came out at 0.147; with Saccharomyces cerevisiae [2] it was 0.706.

As to PSLAAYFWRVVG, the protein stability index worked out at 0.142 in the series on Saccharomyces cerevisiae [1] and 0.677 in the series on Saccharomyces cerevisiae [2].

Consider PSLANSFWRVVG, for which the protein stability index in the series on Saccharomyces cerevisiae [1] stood at 0.269; in the series with Saccharomyces cerevisiae [2] it was 0.711.

As to PSLATSFWRVVG, the protein stability index with Saccharomyces cerevisiae [1] stood at 0.158; in the series with Saccharomyces cerevisiae [2] it was 0.687.

Consider PSLTASFWRVVG, for which the protein stability index was 0.156 with Saccharomyces cerevisiae [1] and 0.693 with Saccharomyces cerevisiae [2].

On to PSTAASFWRVVG, for which the protein stability index in the series with Saccharomyces cerevisiae [1] was found to be 0.135; with Saccharomyces cerevisiae [2], 0.701.

In the case of QLIQPLPVQFLN, the protein stability index in the series with Saccharomyces cerevisiae [1] is 0.0736; in the series with Saccharomyces cerevisiae [2], 0.616.

Turning to RLHQPLPVQFLN, the protein stability index with Saccharomyces cerevisiae [1] turned out to be 0.06; in the series on Saccharomyces cerevisiae [2] it was 0.581.

For the sequence RLIQDLPVQFLN, the protein stability index in the series with Saccharomyces cerevisiae [1] was 0.14; in the series on Saccharomyces cerevisiae [2], 0.588.

As to RLIQHLPVQFLN, the protein stability index in the series on Saccharomyces cerevisiae [1] was determined as 0.0489; in the series with Saccharomyces cerevisiae [2], 0.636.

RLIQPGPVQFLN: the protein stability index is 0.102 with Saccharomyces cerevisiae [1] and 0.611 in the series on Saccharomyces cerevisiae [2].

RLIQPLPTQFLN: the protein stability index with Saccharomyces cerevisiae [1] was found to be 0.215; with Saccharomyces cerevisiae [2] it was 0.638.

With RLIQPLPVHFLN, the protein stability index was found to be 0.0347 with Saccharomyces cerevisiae [1] and 0.587 in the series on Saccharomyces cerevisiae [2].

For RLIQPLPVKFLN, the protein stability index in the series with Saccharomyces cerevisiae [1] amounted to 0.184; in the series with Saccharomyces cerevisiae [2], 0.584.

As for RLIQPLPVQFLC, the protein stability index in the series on Saccharomyces cerevisiae [1] stood at 0.0371; with Saccharomyces cerevisiae [2] it was 0.566.

RLIQPLPVQFLNG: the protein stability index with Saccharomyces cerevisiae [1] amounted to 0.626; in the series on Saccharomyces cerevisiae [2], 0.655.

Take RLIQPLPVQFLNW: the values for the protein stability index with Saccharomyces cerevisiae [1] and with Saccharomyces cerevisiae [2] were 0.667 and 0.686, respectively.

As for RLIQPQPVQFLN, the protein stability index in the series with Saccharomyces cerevisiae [1] was determined as 0.0694; in the series on Saccharomyces cerevisiae [2], 0.593.

On to RLIQPVPVQFLN, for which the protein stability index in the series on Saccharomyces cerevisiae [1] is 0.123; with Saccharomyces cerevisiae [2], 0.583.

Turning to RLLQPLPVQFLN, the protein stability index with Saccharomyces cerevisiae [1] worked out at 0.037; with Saccharomyces cerevisiae [2] it was 0.595.

In the case of RLNQPLPVQFLN, the protein stability index with Saccharomyces cerevisiae [1] worked out at 0.0569; with Saccharomyces cerevisiae [2] it was 0.605.

For RLSQPLPVQFLN, the protein stability index was determined as 0.0622 in the series with Saccharomyces cerevisiae [1] and 0.607 in the series with Saccharomyces cerevisiae [2].

On to RQIQPLPVQFLN, for which the protein stability index in the series with Saccharomyces cerevisiae [1] came out at 0.124; in the series on Saccharomyces cerevisiae [2] it was 0.604.

In the case of RRIQPLPVQFLN, the protein stability index came out at 0.0626 with Saccharomyces cerevisiae [1] and 0.601 in the series with Saccharomyces cerevisiae [2].

With SKILRQKMNHQN, the protein stability index in the series with Saccharomyces cerevisiae [1] was found to be 0.153; in the series with Saccharomyces cerevisiae [2], 0.677.

With TSLAASFWRVVG, the protein stability index in the series on Saccharomyces cerevisiae [1] amounted to 0.125; with Saccharomyces cerevisiae [2], 0.688.

As for VGGAVGGWRLVG, the protein stability index in the series with Saccharomyces cerevisiae [1] was found to be 0.156; in the series with Saccharomyces cerevisiae [2], 0.67.

VKHKKGQKQKIN: the protein stability index in the series with Saccharomyces cerevisiae [1] came to 0.105; in the series with Saccharomyces cerevisiae [2] it was 0.716.

Regarding VKILRQKMNHQN, the protein stability index in the series on Saccharomyces cerevisiae [1] was 0.174; in the series on Saccharomyces cerevisiae [2], 0.67.

For the sequence VLGAVGGWRLVG, the values for the protein stability index in the series with Saccharomyces cerevisiae [1] and in the series on Saccharomyces cerevisiae [2] were 0.133 and 0.673, respectively.

Turning to VLIQPLPVQFLN, the protein stability index with Saccharomyces cerevisiae [1] came to 0.0725; in the series with Saccharomyces cerevisiae [2], 0.603.

As to VRGAEGGWRLVG, the protein stability index amounted to 0.242 in the series with Saccharomyces cerevisiae [1] and 0.686 in the series on Saccharomyces cerevisiae [2].

For the sequence VRGALGGWRLVG, the protein stability index in the series with Saccharomyces cerevisiae [1] amounted to 0.171; with Saccharomyces cerevisiae [2], 0.669.

Regarding VRGATGGWRLVG, the protein stability index was determined as 0.188 in the series with Saccharomyces cerevisiae [1] and 0.682 in the series with Saccharomyces cerevisiae [2].

VRGAVGDWRLVG: the protein stability index turned out to be 0.215 with Saccharomyces cerevisiae [1] and 0.658 in the series with Saccharomyces cerevisiae [2].

As to VRGAVGEWRLVG, the results for the protein stability index in the series on Saccharomyces cerevisiae [1] and with Saccharomyces cerevisiae [2] were 0.182 and 0.696, respectively.

For the sequence VRGAVGGFRLVG, the protein stability index with Saccharomyces cerevisiae [1] is 0.661; in the series on Saccharomyces cerevisiae [2] it was 0.677.

Turning to VRGAVGGLRLVG, the protein stability index came out at 0.628 in the series on Saccharomyces cerevisiae [1] and 0.681 in the series on Saccharomyces cerevisiae [2].

For the sequence VRGAVGGWMLVG, the protein stability index with Saccharomyces cerevisiae [1] was 0.456; in the series on Saccharomyces cerevisiae [2], 0.698.

VRGAVGGWQLVG: the protein stability index in the series with Saccharomyces cerevisiae [1] is 0.28; with Saccharomyces cerevisiae [2], 0.689.

For VRGAVGGWRIVG, the protein stability index in the series with Saccharomyces cerevisiae [1] came to 0.325; in the series on Saccharomyces cerevisiae [2], 0.678.

Regarding VRGAVGGWRLVGC, the protein stability index with Saccharomyces cerevisiae [1] amounted to 0.638; in the series on Saccharomyces cerevisiae [2], 0.694.

On to VRGAVGGWRLVS, for which the protein stability index in the series on Saccharomyces cerevisiae [1] was determined as 0.148; with Saccharomyces cerevisiae [2], 0.686.

Consider VRGAVGGWSLVG, for which the protein stability index in the series with Saccharomyces cerevisiae [1] is 0.633; with Saccharomyces cerevisiae [2], 0.689.

Consider VRGAVGGWTLVG, for which the protein stability index with Saccharomyces cerevisiae [1] came out at 0.49; in the series on Saccharomyces cerevisiae [2], 0.664.

The record behind these values is the supplement of paper PMC10724198.
